In general, Kd refers to the concentration at which binding is half-saturated. A low value points to higher affinity. As usually defined, the koff is the first-order rate constant of dissociation. A low value points to a long-lived complex. The term kon denotes the second-order rate constant of association. Higher therefore signals faster complex formation. By EC50 is commonly meant the midpoint of the concentration-response curve. Lower therefore signals higher potency in that assay.

Test [1] addresses T1, Macaca fascicularis CD123 Fc-fusion protein (Macaca fascicularis).
T1 construct: also called cyno CD123-Fc
Briefly: SPR Proteon XPR36, rat IgG captured, CD123-Fc analyte. As for the experimental part:
(§1) Screening of anti-CD123 rat IgGs for binding affinities to human CD123 and cross-reactivities to cyno CD123 was performed with hybridoma supernatants using a Proteon XPR36 (Biorad) in a one-shot kinetics approach. A capture assay was established using a goat anti-rat IgG (112-005-071, Jackson Immuno Research). The capture antibody was coated on GLC chips (176-5011, Biorad) to approx. 8000 RU in the vertical direction using the amine coupling kit (176-2410, Biorad). […] Binding kinetics with human and cyno CD123-Fc fusion protein was measured at 100 μl/min in the horizontal direction with 120 sec. and 600 sec. for association and dissociation, respectively. The CD123-Fc proteins were used in twofold dilutions from 6 nM to 100 nM. PBSET buffer (176-2730, Biorad) was used as assay buffer. Regeneration was achieved by injection of 10 mM Glycine buffer pH 1.5 for 18 sec at 30 μl/min. Data processing and analysis was performed using ProteonManager software v3.0. Fitting of the sensorgrams was done with a 1:1 Langmuir model.

Test [2] deals with T2, human CD123 Strep-II tagged Fc-fusion protein (human).
T2 construct: also called human CD123-Fc; recombinant CD123
Described as above. As to the method:
as §1

Test [3] addresses T3, human CD123 (IL3RA) on cells (human, UniProt P26951 19-378).
T3 construct: also called CD123 transfected HEK293; THP-1
Briefly: flow cytometry, CD123 transfected HEK293, hybridoma supernatant. As for the experimental part: Cells were resuspended in 200 μl Stain Buffer with FBS per well and were measured using the MACSQuant (Miltenyi Biotec) or LSRII (BD) flow cytometer. Further data analyses were performed using the FlowJo software (Tree Star, Inc.). Read out was percentage of cells positive for antibody binding. Cells treated only with the secondary but no primary antibody were used to set the gates. Curves were calculated by XLfit (Algorithm 205).
On the technique in general: Flow cytometry measures light scatter and fluorescence of single cells or particles in a stream.

Test [4] has as its target T4, human CD3δ expressed alone on HEK293F cells (human, UniProt P04234 22-171).
T4 construct: entry includes the signal peptide; also called huCD3δ
Briefly: flow cytometry, HEK293F transfected with huCD3δ. As to the method:
To analyze binding of antibodies to human CD3ε and human CD3δ expressed on the surface of cells, HEK293F cells were transfected with both constructs either alone or in co-transfection and signals were measured by flow cytometry. For transfection procedure FuGENE HD Transfection Reagent (Promega, #E2311) was used according to manufacturer's protocol.
Cells were incubated on a shaker at 37° C. and 5% CO2. At day one to three after transfection cells were harvested and binding of antibodies was analyzed by flow cytometry.
Antibodies for staining were seeded at 1 μg in 50 μl per well Stain Buffer with FBS (BD Pharmingen) in 96-well U-bottom suspension culture plates (Greiner bio-one). Harvested transfected cells were resuspended in Stain Buffer with FBS and were added at 50 μl per well to the antibodies. Cells were incubated at 4° C. in the dark for 30 min and were washed twice. 0.5 μg secondary antibody Goat F(ab′)2 Anti-Human IgG-FITC (Beckman Coulter, #732598) or Goat F(ab′)2 Anti-Human kappa-PE (Southern Biotech, #206209), respectively, in combination with 0.5 μg 7-AAD per well was added in 100 μl Stain Buffer with FBS. Cells were incubated at 4° C. in the dark for 15 min and were washed twice. For measurement, cells were resuspended in 200 μl Stain Buffer with FBS. Cells were measured using the MACSQuant (Miltenyi Biotec) or LSRII (BD) flow cytometer, respectively. Further data analyses were performed using the FlowJo software (Tree Star, Inc.).

The target in test [5] is T5, human CD3ε/δ-Fc fusion protein (soluble recombinant CD3ε/δ complex) (human, UniProt P04234 22-105).
T5 construct: also called huCD3ε/δ; huCD3; not shown: hinge, CH2, CH3 of human IgG with tag
Briefly: SPR single point, hybridoma supernatant. As to the method:
Rats with positive sera were scarified and B cells were fused with mouse myeloma cells. The resulting hybrndomas were screened on HEK293 cells transfected with human or cynomoligus CD3ε and CD3δ expression plasmids, on Jurkat E6.1 (CD3+) and Jurkat T3.5 (CD3-) by flow cytometry. Supernatant of Hybridoma clones was used to assess by surface plasmon resonance single point kinetic against human and Macaca fascicularis CD3ε/δ complex by fixing the analyte at 25 nM (data presented in table 3).

T3 sequence (P26951 19-378): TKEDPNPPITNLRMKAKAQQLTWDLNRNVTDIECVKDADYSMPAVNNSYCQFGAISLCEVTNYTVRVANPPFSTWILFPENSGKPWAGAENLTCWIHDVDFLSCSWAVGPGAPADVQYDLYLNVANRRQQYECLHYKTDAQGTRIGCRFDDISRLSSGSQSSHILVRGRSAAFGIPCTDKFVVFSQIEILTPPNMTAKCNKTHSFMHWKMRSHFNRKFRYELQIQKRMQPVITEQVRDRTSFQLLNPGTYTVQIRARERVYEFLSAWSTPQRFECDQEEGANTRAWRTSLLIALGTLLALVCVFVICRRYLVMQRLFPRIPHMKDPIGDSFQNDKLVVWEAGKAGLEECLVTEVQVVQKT
T1 sequence (chain, as listed by the source limits assumed): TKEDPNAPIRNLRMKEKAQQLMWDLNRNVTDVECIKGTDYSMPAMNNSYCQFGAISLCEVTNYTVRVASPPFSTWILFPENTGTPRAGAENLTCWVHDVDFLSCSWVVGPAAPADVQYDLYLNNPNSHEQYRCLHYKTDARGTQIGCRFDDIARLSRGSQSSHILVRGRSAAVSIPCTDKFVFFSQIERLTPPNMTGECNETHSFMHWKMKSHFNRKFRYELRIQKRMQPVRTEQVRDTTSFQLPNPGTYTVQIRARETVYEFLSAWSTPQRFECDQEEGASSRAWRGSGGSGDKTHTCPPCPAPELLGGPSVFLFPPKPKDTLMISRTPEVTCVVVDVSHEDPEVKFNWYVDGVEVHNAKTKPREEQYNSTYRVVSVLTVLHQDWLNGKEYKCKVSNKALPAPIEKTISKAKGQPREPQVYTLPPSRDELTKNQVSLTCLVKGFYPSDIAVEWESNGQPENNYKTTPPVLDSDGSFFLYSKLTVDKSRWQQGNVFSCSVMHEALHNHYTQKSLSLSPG
T2 sequence (chain, as listed by the source limits assumed): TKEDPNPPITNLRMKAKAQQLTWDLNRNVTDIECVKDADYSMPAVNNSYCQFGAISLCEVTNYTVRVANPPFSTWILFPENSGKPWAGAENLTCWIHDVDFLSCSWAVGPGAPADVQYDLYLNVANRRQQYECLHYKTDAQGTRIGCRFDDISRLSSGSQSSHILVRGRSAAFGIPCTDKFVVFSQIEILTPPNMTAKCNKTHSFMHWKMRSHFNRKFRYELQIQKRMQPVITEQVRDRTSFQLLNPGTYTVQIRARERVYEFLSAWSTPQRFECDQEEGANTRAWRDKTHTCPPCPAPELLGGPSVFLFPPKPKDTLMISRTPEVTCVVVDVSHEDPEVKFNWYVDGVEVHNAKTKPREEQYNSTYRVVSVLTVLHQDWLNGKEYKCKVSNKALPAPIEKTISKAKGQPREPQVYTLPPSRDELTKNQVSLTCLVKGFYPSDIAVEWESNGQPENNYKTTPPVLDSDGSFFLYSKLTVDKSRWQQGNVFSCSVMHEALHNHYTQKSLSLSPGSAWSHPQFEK
T4 sequence (P04234 22-171 limits assumed, stated change not applied): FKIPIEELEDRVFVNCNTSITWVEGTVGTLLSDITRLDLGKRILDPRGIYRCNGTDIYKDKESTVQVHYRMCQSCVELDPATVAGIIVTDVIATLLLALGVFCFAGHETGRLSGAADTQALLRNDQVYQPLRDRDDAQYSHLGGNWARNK
T5 sequence (chain, as listed by the source mutant, chain 1 of 2): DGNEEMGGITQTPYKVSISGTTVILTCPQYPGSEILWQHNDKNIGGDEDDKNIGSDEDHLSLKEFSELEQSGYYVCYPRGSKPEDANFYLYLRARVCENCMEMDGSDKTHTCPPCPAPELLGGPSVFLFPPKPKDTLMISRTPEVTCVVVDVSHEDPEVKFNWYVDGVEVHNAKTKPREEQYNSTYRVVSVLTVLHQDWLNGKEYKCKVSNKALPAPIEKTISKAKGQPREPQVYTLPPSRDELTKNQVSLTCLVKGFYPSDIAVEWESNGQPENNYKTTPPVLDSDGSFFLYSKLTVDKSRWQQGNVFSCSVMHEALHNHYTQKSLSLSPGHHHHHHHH
T5 sequence (P04234 22-105, stated change not applied, chain 2 of 2): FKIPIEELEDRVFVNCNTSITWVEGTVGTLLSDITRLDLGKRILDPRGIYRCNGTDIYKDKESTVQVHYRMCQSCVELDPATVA

B1: 1E1-G5 anti-CD123 rat IgG (hybridoma supernatant) (antibody, V domains shown)
VH: QVQLQESGPTLVKPGDSVKMSCKAFGYTFTDHIIHWVKQSHGKSLEWIGYINPYSGGTNYNEKFKSKATLTVDKSSSTAYMEFSRLTSEDSAICYCALNYGSYYAMDAWGQGTSVTVSS
VL: DIQMTQSPASLSASLGQTVTIECRPSEDIYSNLAWFQQKPGSSPQLLIYDANNLADGVPSRFSGSGSGTQYSLKINSLQSEDVASYFCQQYNKYPYTFGTGTKLELK
notes: rat IgG; also called BFX - 1E1
For B1, the Kd in test [1] amounted to 0.72 nM. In test [2], this molecule came in with a Kd of 0.23 nM, a koff of 0.00011 s⁻¹ and a kon of 460000 M⁻¹ s⁻¹. Moreover, the response in test [3] was half-maximal at 2.2 ng/mL (EC50).

B2: 6D6-B8 anti-CD123 rat IgG (hybridoma supernatant) (antibody, V domains shown)
VH: QVQLQESGPTLVKPGDSVKMSCKASAYTFTDNIIHWVKQSHGKSLDWIGYINPYSGGTNYNGWFRSKATLTVDKSSSTAYMEFSRLTSDDSAIYYCALNYGSYYAMDAWGQGTSVTVSS
VL: DIQMTQSPASLSASLGETVTIDCRPSEDIFNNLAWYQQKPGNSPQLLIYDANSLADGVPSRFSGSGSGTQYSLMIIRLQSEDVASYFCHQYNIYPYTFGAGTKLELK
notes: rat IgG; also called BFX - 6D6
The molecule B2 displayed a half-maximal effective concentration (EC50) in test [3] of 0.9 ng/mL.

B3: 3B10-E6 anti-CD123 rat IgG (hybridoma supernatant) (antibody, V domains shown)
VH: QVQLQQSGPELRRPGSSVRLSCKASGYRIKDFLIHWIKNRPEHGLEWIGWIDPEDGETKYAQKFQTKATLTADTSSNTAYMQLSSLTSEDTATYFCARWGDVYYGLMRGHVMDAWGQGTSVTVSS
VL: DVLMTQTPVSLPVSLGGQVSISCRSSQSLVHSDGDTYLHWYLQKPGQSPQLLIYRVSNRFSGVPDRFSGSGSGTDFTLKISRVEPEDLGLYYCLQTTHFPPWTFGGGTKLEMK
notes: rat IgG; also called BFX - 3B10
B3 came in with a Kd in test [1] of 0.27 nM. In test [3], this molecule came in with an EC50 of 2 ng/mL.

B4: 2B8-F3 anti-CD123 rat IgG (hybridoma supernatant) (antibody, V domains shown)
VH: EVQLVESGGGLVQPGRSLKLSCAASGFTFSDYNMAWVRQAPKKGLEWVATILYDGGRTYYRGSVKGRFTISRDNAKSTLYLRMDSLRSEDTATYYCATHSRGTDYFDYWGQGVMVTVSS
VL: EIVLTQSPTSMTASPGEQVTITCRASSSINYMHWYQQKPGASPRPWIYETSKLASGVPDRFSGSASGTSYSLTINNMEAEDAATYYCQQWNYPSWTFGGGTKLELK
notes: rat IgG; also called BFX - 2B8
In the case of B4, the Kd in test [1] came out at 0.77 nM. In test [2], this molecule yielded a Kd of 0.018 nM, a koff of 1.2e-05 s⁻¹ and a kon of 660000 M⁻¹ s⁻¹. For the same molecule, the EC50 in test [3] came out at 5.5 ng/mL.

B5: 12D2-E5 Fab (Fab, V domains shown)
VH: EVKLVESGGGLVQPGRSLRLSCAASGFNFYAYWMGWVRQAPGKGLEWIGEIKKDGTTINYTPSLKDRFTISRDNAQNTLYLQMTKLGSEDTALYYCAREERDGYFDYWGQGVMVTVSS
VL: QFVLTQPNSVSTNLGSTVKLSCKRSTGNIGSNYVNWYQQHEGRSPTTMIYRDDKRPDGVPDRFSGSIDRSSNSALLTINNVQTEDEADYFCQSYSSGIVFGGGTKLTVL
On to B5, for which the binding result in test [4] was “no binding (tested: <20% of binding of huCD3e + huCD3d)”.

B6: 18G9-H11 anti-CD3 antibody (hybridoma supernatant) (antibody, V domains shown)
VH: EVQLVETGGSLVQPGKSLKLTCATSGFTFSNAWIQWVRQSPEKQLEWVAQIKAKSNNYATYYAESVKGRFTISRDDSKSSVYLQMNSLKEEDTALYYCTWRHYYSSHTMDAWGQGTLVTVSS
VL: DVVMTQTPVSLSVSLGGQVSISCRSSQSLVHNNGNTYLSWYLQKPGQSPQLLIYKVSNRFSGISDRFSGSGSGTDFTLKISRVAPTDLGVYYCGQGSQYPFTFGAGTKLELK
notes: rat IgG in hybridoma supernatant
For the molecule B6, in test [5], the “RU at 25 nM” value came to 7 RU.

B7: 5B1-G2 Fab (Fab, V domains shown)
VH: EVQVVETGGSLVQPGKSLKLTCATSGFSFSNAWMHWVRQSPEKQLEWVAQIKDKANNYATYYAESVKGRFTISRDDSKGSIYLQMNSLKEEDTAVYYCRGLYYGLFPSDYWGQGVMVTVSS
VL: DVVMTQTPVSLSVSLGGQVSISCRSSQSLVHNNGNTYLSWYLLKPGQSPQLLIYKVSNRFSGISDRFSGGGSGTDFTLKISRLEPDDLGIYYCGQGTQYPFTFGSGTKLEIK
In the case of B7, the binding result in test [4] is listed as “no binding (tested: <20% of binding of huCD3e + huCD3d)”.

For the origin of these results see US20210292423A1 (published 2021).
